# Results reported in publication PMC4786110.
# Target: aMh-FcG2a, nanobody aMh fused with the Fc domain of mouse IgG2a (Camelus bactrianus | camel | mouse)
# Assay: SPR; Biacore 3000; aMh-Fc captured by anti-mouse IgG immobilised on a CM5 chip; antigen flowed at 5.95-595 nM; 25°C, HBS-EP pH 7.4, 30 μl/min; 1:1 fitting
# aMh-FcG2a, nanobody aMh fused with the Fc domain of mouse IgG2a (Camelus bactrianus | camel | mouse), sequence (heavy, as listed by the source): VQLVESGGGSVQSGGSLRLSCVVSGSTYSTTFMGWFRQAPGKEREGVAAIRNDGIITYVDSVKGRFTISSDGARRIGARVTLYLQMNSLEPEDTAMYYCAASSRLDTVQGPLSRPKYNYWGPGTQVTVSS
substance,measurement,value
ABC transporter substrate binding protein (MH3620) of Mycoplasma hominis (natural protein),Kd,5.94 nM
same,koff,0.000106 s⁻¹
same,kon,17800 M⁻¹ s⁻¹
